Test results taken from US20180258163A1 (Chugai, published 2018).
Changes are numbered by the printed parent chain. Names and notes keep the numbering of the source.

T1: soluble human FcγRIIb (human, UniProt P31994 43-217, limits assumed)
T1 construct: soluble His-tagged form; also called hFcγRIIb
T1 sequence (looked up): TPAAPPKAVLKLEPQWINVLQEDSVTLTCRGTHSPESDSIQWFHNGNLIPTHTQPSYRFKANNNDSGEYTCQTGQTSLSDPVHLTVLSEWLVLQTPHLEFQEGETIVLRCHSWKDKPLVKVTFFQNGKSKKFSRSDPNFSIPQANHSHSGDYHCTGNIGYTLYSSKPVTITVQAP

B1: Ab1H-P927/Ab1L (antibody, human IgG1, kappa, name in EU numbering)
heavy: QVQLVESGGGLVQPGGSLRLSCAASGFTLSNHDMTWVRQAPGKGLEYVSIINTYGNHWYANWASGRFTISRDNSKNTVYLQIDSLRAEDTATYYCARETHHGSSGIDHWGQGTLVTVSSASTKGPSVFPLAPSSKSTSGGTAALGCLVKDYFPEPVTVSWNSGALTSGVHTFPAVLQSSGLYSLSSVVTVPSSSLGTQTYICNVNHKPSNTKVDKKVEPKSCDKTHTCPPCPAPELLGGDSVFLFPPKPKDTLMISRTPEVTCVVVDVSHEDPEVKFNWYVDGVEVHNAKTKPRERQYNATYRVVSVLTVLHQDWLNGKEYKCKVSNKALPAPIEKTISKAKGQPREPQVYTLPPSREEMTKNQVSLTCLVKGFYPSDIAVEWESNGQPENNYKTTPPVLDSDGSFFLYSKLTVDKSRWQQGNVFSCSVMHEALHNHYTQKSLSLSP
light: DIQMTQSPSSVSASVGDRVTITCQASESIYSGLAWYQQKPGQPPKLLIYDHSTLASGVPSRFSGSGSGTEYALTISSLQPEDFATYYCQHADYAHHSDNVFGGGTKVEIKRTVAAPSVFIFPPSDEQLKSGTASVVCLLNNFYPREAKVQWKVDNALQSGNSQESVTEQDSKDSTYSLSSTLTLSKADYEKHKVYACEVTHQGLSSPVTKSFNRGEC
notes: copies: 2 + 2
B2: Ab1H-P928/Ab1L (antibody, human IgG1, kappa, name in EU numbering)
heavy: B1 heavy with E295R, R296E
light: B1 light
notes: copies: 2 + 2
B3: Ab1H-P930/Ab1L (antibody, human IgG1, kappa, name in EU numbering)
heavy: B1 heavy with A289R, R296E
light: B1 light
notes: copies: 2 + 2
B4: Ab1H-P938/Ab1L (antibody, human IgG1, kappa, name in EU numbering)
heavy: B1 heavy with P273R, R296E
light: B1 light
notes: copies: 2 + 2
B5: Ab1H-P937/Ab1L (antibody, human IgG1, kappa, name in EU numbering)
heavy: B1 heavy with E274R, R296E
light: B1 light
notes: copies: 2 + 2
B6: Ab1H-P939/Ab1L (antibody, human IgG1, kappa, name in EU numbering)
heavy: B1 heavy with D272R, R296E
light: B1 light
notes: copies: 2 + 2
B7: Ab1H-P940/Ab1L (antibody, human IgG1, kappa, name in EU numbering)
heavy: B1 heavy with E271R, R296E
light: B1 light
notes: copies: 2 + 2
B8: Ab1H-P941/Ab1L (antibody, human IgG1, kappa, name in EU numbering)
heavy: B1 heavy with H270R, R296E
light: B1 light
notes: copies: 2 + 2
B9: Ab1H-P932/Ab1L (antibody, human IgG1, kappa, name in EU numbering)
heavy: B1 heavy with H287R, R296E
light: B1 light
notes: copies: 2 + 2
B10: Ab1H-P929/Ab1L (antibody, human IgG1, kappa, name in EU numbering)
heavy: B1 heavy with P293R, R296E
light: B1 light
notes: copies: 2 + 2
B11: Ab1H-P934/Ab1L (antibody, human IgG1, kappa, name in EU numbering)
heavy: B1 heavy with V284R, R296E
light: B1 light
notes: copies: 2 + 2
B12: Ab1H-P935/Ab1L (antibody, human IgG1, kappa, name in EU numbering)
heavy: B1 heavy with G283R, R296E
light: B1 light
notes: copies: 2 + 2
B13: Ab1H-P931/Ab1L (antibody, human IgG1, kappa, name in EU numbering)
heavy: B1 heavy with N288R, R296E
light: B1 light
notes: copies: 2 + 2
B14: Ab1H/Ab1L012 (antibody, human IgG1, kappa)
heavy: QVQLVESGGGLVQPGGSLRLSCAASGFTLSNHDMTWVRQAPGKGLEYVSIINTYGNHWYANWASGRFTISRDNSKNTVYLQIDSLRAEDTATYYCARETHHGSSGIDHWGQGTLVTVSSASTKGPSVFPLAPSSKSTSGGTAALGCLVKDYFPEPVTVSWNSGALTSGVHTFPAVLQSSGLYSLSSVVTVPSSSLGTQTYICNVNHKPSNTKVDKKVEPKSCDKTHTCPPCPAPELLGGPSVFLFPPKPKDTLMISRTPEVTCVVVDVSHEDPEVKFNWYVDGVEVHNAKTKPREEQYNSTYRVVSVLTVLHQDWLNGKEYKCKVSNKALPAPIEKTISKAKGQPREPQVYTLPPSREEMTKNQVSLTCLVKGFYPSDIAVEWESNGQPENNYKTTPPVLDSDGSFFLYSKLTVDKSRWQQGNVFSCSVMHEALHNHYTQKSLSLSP
light: B1 light with S65R, T69R
notes: copies: 2 + 2
B15: Ab1H/Ab1L001 (antibody, human IgG1, kappa)
heavy: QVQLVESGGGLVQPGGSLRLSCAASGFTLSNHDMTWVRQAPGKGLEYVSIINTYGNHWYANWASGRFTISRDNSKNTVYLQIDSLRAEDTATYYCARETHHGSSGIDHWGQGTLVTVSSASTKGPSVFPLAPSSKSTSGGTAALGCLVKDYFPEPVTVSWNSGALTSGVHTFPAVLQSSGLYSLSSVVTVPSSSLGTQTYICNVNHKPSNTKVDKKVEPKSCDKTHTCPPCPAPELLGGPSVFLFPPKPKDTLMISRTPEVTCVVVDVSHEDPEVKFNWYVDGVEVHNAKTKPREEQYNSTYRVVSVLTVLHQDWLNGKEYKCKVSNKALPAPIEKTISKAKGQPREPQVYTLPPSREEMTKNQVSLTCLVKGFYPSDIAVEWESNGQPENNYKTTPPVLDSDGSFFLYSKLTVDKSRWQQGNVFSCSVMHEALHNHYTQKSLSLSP
light: B1 light with G16K
notes: light chain = Ab1L with G16K (Kabat); also called Ab1L001T; copies: 2 + 2
B16: Ab1H/Ab1L016 (antibody, human IgG1, kappa)
heavy: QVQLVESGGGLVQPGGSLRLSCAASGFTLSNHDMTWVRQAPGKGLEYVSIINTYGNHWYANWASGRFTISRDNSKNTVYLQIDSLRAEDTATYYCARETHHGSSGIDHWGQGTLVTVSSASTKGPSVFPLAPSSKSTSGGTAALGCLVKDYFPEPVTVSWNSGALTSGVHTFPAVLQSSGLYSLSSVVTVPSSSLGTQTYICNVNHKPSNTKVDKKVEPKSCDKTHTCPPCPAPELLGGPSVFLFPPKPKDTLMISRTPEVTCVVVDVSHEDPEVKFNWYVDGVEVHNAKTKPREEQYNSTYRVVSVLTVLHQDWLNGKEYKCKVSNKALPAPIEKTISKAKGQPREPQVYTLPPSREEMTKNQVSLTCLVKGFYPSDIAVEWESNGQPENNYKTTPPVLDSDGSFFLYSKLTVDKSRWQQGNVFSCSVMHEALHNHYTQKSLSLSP
light: B1 light with Q24R, E27R, Q37R
notes: copies: 2 + 2
B17: Ab1H/Ab1L009 (antibody, human IgG1, kappa)
heavy: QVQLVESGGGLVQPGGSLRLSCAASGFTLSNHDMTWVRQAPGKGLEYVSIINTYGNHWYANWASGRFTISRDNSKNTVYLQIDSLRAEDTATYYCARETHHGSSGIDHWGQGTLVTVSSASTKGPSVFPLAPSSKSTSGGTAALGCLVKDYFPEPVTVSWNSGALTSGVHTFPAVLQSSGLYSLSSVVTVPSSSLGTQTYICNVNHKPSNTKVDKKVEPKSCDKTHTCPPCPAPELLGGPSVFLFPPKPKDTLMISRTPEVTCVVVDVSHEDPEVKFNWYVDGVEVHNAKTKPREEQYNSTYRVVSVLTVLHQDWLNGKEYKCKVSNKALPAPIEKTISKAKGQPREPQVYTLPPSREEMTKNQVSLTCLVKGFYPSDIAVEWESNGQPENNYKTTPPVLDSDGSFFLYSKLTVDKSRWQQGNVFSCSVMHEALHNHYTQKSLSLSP
light: B1 light with L46R, Y49K
notes: copies: 2 + 2
B18: Ab1H/Ab1L011 (antibody, human IgG1, kappa)
heavy: not shown
light: B1 light with S52K, S56K
notes: copies: 2 + 2
B19: Ab1H/Ab1L006 (antibody, human IgG1, kappa)
heavy: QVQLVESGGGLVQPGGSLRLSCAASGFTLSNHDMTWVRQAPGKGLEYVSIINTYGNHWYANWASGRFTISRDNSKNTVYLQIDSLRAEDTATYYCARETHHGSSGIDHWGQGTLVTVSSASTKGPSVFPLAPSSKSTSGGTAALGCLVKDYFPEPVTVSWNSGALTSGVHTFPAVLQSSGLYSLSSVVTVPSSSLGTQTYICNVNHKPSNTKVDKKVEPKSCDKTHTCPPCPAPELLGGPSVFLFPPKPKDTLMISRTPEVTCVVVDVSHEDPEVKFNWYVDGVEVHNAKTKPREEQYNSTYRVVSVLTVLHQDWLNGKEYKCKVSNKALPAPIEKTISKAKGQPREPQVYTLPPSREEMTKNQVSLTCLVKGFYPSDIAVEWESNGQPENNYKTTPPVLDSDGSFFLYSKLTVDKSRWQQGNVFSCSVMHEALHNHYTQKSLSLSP
light: B1 light with A25R, S26R
notes: copies: 2 + 2
B20: Ab1H/Ab1L003 (antibody, human IgG1, kappa)
heavy: not shown
light: B1 light with Q24R, E27R
notes: copies: 2 + 2
B21: Ab1H/Ab1L015 (antibody, human IgG1, kappa)
heavy: not shown
light: B1 light with G16K, Q24R, E27R
notes: copies: 2 + 2
B22: Ab1H/Ab1L022 (antibody, human IgG1, kappa)
heavy: not shown
light: B1 light with Q24R, E27R, T74K, S77R
notes: copies: 2 + 2
B23: Ab1H/Ab1L019 (antibody, human IgG1, kappa)
heavy: not shown
light: B1 light with Q24R, E27R, S52R, S56R
notes: copies: 2 + 2
B24: Ab1H/Ab1L013 (antibody, human IgG1, kappa)
heavy: not shown
light: B1 light with T74K, S77R
notes: copies: 2 + 2
B25: Ab1H/Ab1L004 (antibody, human IgG1, kappa)
heavy: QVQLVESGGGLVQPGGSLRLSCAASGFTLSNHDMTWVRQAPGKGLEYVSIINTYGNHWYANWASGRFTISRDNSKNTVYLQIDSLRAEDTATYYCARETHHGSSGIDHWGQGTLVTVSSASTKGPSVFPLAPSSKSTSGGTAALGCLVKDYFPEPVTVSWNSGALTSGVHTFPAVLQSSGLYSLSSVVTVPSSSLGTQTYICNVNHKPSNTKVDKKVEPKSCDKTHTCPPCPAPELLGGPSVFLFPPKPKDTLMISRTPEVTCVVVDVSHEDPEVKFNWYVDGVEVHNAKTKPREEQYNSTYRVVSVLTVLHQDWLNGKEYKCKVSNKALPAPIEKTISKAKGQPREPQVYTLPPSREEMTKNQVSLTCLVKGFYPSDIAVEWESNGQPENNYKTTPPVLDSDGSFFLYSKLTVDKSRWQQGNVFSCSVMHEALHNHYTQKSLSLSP
light: B1 light with Q24K, E27K
notes: copies: 2 + 2
B26: Ab1H/Ab1L005 (antibody, human IgG1, kappa)
heavy: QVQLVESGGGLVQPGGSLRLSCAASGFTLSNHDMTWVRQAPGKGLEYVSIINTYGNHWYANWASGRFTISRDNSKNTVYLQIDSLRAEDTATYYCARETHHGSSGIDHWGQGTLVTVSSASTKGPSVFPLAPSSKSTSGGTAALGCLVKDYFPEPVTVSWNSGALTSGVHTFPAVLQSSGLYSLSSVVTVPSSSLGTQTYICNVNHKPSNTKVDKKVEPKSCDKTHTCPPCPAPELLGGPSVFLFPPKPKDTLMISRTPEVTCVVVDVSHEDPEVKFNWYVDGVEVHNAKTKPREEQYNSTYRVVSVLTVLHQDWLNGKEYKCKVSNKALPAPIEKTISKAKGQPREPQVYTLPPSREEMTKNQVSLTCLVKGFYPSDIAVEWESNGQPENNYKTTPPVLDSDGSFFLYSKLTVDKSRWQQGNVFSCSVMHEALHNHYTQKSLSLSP
light: B1 light with A25K, S26K
notes: '526K' read as S26K; copies: 2 + 2
B27: Ab1H/Ab1L020 (antibody, human IgG1, kappa)
heavy: not shown
light: B1 light with Q24R, E27R, S52K, S56K
notes: copies: 2 + 2
B28: Ab1H/Ab1L025 (antibody, human IgG1, kappa)
heavy: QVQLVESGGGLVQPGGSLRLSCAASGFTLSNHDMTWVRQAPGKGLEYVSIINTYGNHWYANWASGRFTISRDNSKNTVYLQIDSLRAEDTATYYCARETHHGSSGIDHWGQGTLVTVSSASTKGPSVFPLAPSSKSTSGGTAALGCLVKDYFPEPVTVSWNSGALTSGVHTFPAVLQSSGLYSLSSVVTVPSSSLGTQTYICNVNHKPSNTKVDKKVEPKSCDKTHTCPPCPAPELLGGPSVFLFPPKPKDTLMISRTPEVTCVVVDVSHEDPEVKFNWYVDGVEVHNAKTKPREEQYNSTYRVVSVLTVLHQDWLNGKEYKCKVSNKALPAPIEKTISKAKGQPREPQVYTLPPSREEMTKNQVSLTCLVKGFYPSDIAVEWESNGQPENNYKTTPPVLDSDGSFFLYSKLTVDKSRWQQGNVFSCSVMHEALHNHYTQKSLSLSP
light: B1 light with A25R, S26R, Q37R
notes: copies: 2 + 2
B29: Ab1H/Ab1L007 (antibody, human IgG1, kappa)
heavy: not shown
light: B1 light with Q37R
notes: copies: 2 + 2
B30: Ab1H/Ab1L002 (antibody, human IgG1, kappa)
heavy: not shown
light: B1 light with Q24R, E27Q
notes: copies: 2 + 2
B31: Ab1H/Ab1L014 (antibody, human IgG1, kappa)
heavy: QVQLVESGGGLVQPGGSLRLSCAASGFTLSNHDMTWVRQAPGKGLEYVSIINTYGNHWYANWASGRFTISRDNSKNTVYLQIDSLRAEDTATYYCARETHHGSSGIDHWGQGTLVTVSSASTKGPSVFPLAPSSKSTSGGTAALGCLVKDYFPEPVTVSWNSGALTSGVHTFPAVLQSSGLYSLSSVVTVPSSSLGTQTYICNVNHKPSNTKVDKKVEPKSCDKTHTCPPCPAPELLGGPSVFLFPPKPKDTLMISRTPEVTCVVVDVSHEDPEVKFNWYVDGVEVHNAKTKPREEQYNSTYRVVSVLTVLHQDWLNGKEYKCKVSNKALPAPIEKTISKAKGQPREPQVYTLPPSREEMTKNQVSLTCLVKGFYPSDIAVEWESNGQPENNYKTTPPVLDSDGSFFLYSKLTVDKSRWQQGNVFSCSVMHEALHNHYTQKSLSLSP
light: B1 light with S76R, Q79K
notes: copies: 2 + 2
B32: Ab1H/Ab1L017 (antibody, human IgG1, kappa)
heavy: not shown
light: B1 light with Q24R, E27R, G41R, Q42K
notes: copies: 2 + 2
B33: Ab1H/Ab1L023 (antibody, human IgG1, kappa)
heavy: not shown
light: B1 light with Q24R, E27R, S76R, Q79K
notes: copies: 2 + 2
B34: Ab1H/Ab1L008 (antibody, human IgG1, kappa)
heavy: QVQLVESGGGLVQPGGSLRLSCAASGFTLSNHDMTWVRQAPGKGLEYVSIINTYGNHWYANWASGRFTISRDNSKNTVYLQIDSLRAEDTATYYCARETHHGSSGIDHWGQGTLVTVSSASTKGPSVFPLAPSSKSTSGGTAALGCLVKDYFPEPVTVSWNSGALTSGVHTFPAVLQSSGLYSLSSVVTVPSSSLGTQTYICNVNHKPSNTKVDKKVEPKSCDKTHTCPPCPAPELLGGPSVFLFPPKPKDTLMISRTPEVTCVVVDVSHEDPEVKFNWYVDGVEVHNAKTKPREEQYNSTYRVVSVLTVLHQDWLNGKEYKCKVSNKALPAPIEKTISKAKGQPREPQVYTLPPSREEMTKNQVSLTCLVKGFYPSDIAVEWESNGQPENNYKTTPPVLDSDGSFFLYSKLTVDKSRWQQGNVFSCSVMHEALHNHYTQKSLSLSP
light: B1 light with G41R, Q42K
notes: copies: 2 + 2
B35: Ab1H/Ab1L010 (antibody, human IgG1, kappa)
heavy: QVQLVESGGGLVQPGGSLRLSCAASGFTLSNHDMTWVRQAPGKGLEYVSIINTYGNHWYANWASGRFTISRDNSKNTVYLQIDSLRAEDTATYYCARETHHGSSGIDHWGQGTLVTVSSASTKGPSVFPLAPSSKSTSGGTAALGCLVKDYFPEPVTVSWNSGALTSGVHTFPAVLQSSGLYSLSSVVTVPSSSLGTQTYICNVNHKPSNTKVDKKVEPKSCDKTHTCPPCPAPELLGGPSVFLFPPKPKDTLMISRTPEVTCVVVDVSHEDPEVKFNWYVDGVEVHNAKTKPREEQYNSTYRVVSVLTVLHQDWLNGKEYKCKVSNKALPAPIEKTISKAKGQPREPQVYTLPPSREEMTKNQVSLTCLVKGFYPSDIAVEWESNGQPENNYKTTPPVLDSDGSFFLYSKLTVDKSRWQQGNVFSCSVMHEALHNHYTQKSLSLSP
light: B1 light with S52R, S56R
notes: copies: 2 + 2
B36: Ab1H/Ab1L018 (antibody, human IgG1, kappa)
heavy: not shown
light: B1 light with Q24R, E27R, L46R, Y49K
notes: copies: 2 + 2
B37: Ab1H/Ab1L021 (antibody, human IgG1, kappa)
heavy: not shown
light: B1 light with Q24R, E27R, S65R, T69R
notes: '169R' read as T69R; copies: 2 + 2

Biological target: T1, soluble human FcγRIIb
Assay: SPR, Ab-IgE complex over captured hFcγRIIb, pH 7.4, 25C
Description: Fc region variant-containing antibody binding assays between soluble human FcγRIIb (a.k.a. “hFcγRIIb”) and antigen-antibody complexes were performed using BIACORE® T200 (GE Healthcare). Soluble hFcγRIIb was produced in the form of a His-tagged molecule using methods known in the art. An appropriate amount of an anti-His antibody was fixed onto Sensor chip CM5 (GE Healthcare) by the amine coupling method using a His capture kit (GE Healthcare) to capture hFcγRIIb. Next, an antibody-antigen complex and a running buffer (as a reference solution) was injected, and interaction was allowed to take place with the hFcγRIIb captured onto the sensor chip. 20 mM N-(2-Acetamido)-2-aminoethanesulfonic acid, 150 mM NaCl, 1.2 mM CaCl₂, and 0.05% (w/v) Tween 20 at pH 7.4 was used as the running buffer, and the respective buffer was also used to dilute the soluble hFcγRIIb. To regenerate the sensor chip, 10 mM glycine-HCl at pH 1.5 was used. All measurements were carried out at 25° C. Analyses were performed based on binding (RU) calculated from sensorgrains obtained by the measurements, and relative values when the binding amount of P600 was defined as 1.00 are shown. To calculate the parameters, the BIACORE® T100 Evaluation Software (GE Healthcare) was used.

Point of comparison: B3, “relative binding (RU), P600=1.00” value -0.07 fold. Against it:
- B1 — higher, 0.25 fold
- B2 — higher, 0.2 fold
- B4 — higher, -0.06 fold
- B5 — higher, 0.21 fold
- B6 — the same, -0.07 fold
- B7 — higher, -0.05 fold
- B8 — higher, 0.47 fold
- B9 — higher, 1.38 fold
- B10 — higher, 0.47 fold
- B11 — higher, 1.54 fold
- B12 — higher, -0.06 fold
- B13 — higher, 0.68 fold

Biological target: T1, soluble human FcγRIIb
Assay: as above
Remark: another data set of the same source
Description: Regarding the produced Fc region variant-containing antibodies, binding assays between soluble human FcγRIIb and antigen-antibody complexes were performed using BIACORE T200 (GE Healthcare). Soluble human FcγRIIb (NCBI accession NM_004001.3) was produced in the form of a His-tagged molecule by a method known in the art. An appropriate amount of an anti-His antibody was fixed onto Sensor chip CM5 (GE Healthcare) by the amine coupling method using a His capture kit (GE Healthcare) to capture human FcγRIIb. Next, an antibody-antigen complex and a running buffer (as a reference solution) were injected, and interaction was allowed to take place with the human FcγRIIb captured onto the sensor chip. 20 mM N-(2-Acetamido)-2-aminoethanesulfonic acid, 150 mM NaCl, 1.2 mM CaCl₂, and 0.05% (w/v) Tween 20 at pH 7.4 was used as the running buffer, and the respective buffer was also used to dilute the soluble human FcγRIIb. To regenerate the sensor chip, 10 mM glycine-HCl at pH 1.5 was used. All measurements were carried out at 25° C. Analyses were performed based on binding (RU) calculated from sensorgrams obtained by the measurements, and relative values when the binding amount of Ab1H/Ab1L (original Ab1) was defined as 1.00 are shown. To calculate the parameters, the BIACORE T100 Evaluation Software (GE Healthcare) was used.

Point of comparison: B18, “BIACORE fold (relative binding, original Ab1=1.00)” value 1.02 fold. Against it:
- B14 — lower, 0.97 fold
- B15 — higher, 1.03 fold
- B16 — higher, 1.36 fold
- B17 — lower, -0.02 fold
- B19 — higher, 1.18 fold
- B20 — higher, 1.09 fold
- B21 — higher, 1.25 fold
- B22 — higher, 1.45 fold
- B23 — higher, 1.17 fold
- B24 — higher, 1.7 fold
- B25 — lower, 1.01 fold
- B26 — lower, 0.84 fold
- B27 — higher, 1.22 fold
- B28 — higher, 1.39 fold
- B29 — higher, 1.06 fold
- B30 — higher, 1.03 fold
- B31 — higher, 1.08 fold
- B32 — higher, 1.27 fold
- B33 — higher, 1.39 fold
- B34 — higher, 1.07 fold
- B35 — lower, 0.98 fold
- B36 — lower, 0.07 fold
- B37 — higher, 1.36 fold
